Results: patent US20260242478A1 (published 2026)
Where no end group is shown, it is not given here.

Columns and labels:
PSMA Fab [1] = biological target: T1, PSMA Fab (biotinylated (site not stated)); assay: clonal phage ELISA on biotinylated PSMA Fab captured on neutravidin plates, anti-M13 HRP detection;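 also: crude clonal phage supernatants tested, before phage were added, wells were pretreated with PSMA antigen in blocking buffer or with blocking buffer only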
T1 construct: also called Anti-PSMA Fab; 006 PSMA Fab

PSMA Fab [2] = biological target: T1, PSMA Fab; assay: clonal phage ELISA on captured PSMA Fab, wells pre-incubated with PSMA antigen as competitor; column meaning inferred
Experimental: (§1) Clonal phage were harvested as crude supernatants and screened via standard ELISAs. […] Prior to the addition of clonal phage. wells were incubated with blocking buffer and PSMA antigen or blocking buffer alone. Without washing or aspirating, clonal phage supernatants were then added to the wells and incubated for a short time. Wells were then washed followed by detection of bound phage using a horse radish conjugated anti-M13 antibody.

PSMA Fab [3] = biological target: T2, PSMA Fab (biotinylated (site not stated)); assay: clonal phage ELISA on captured PSMA Fab pre-incubated with PSMA antigen (competitor: PSMA), anti-M13-HRP detection
T2 construct: also called Anti-PSMA Fab; 006 PSMA Fab

PSMA Fab [4] = biological target: T2, PSMA Fab; assay: clonal phage ELISA on biotinylated PSMA Fab captured on neutravidin plates, blocking buffer alone, anti-M13-HRP detection
Experimental: as §1

PSMA Fab [5] = biological target: T3, PSMA Fab (biotinylated (site not stated)); assay: clonal phage ELISA; biotinylated PSMA Fab on neutravidin plate; bound phage detected with anti-M13-HRP
T3 construct: also called Anti-PSMA Fab; 006 PSMA Fab

PSMA Fab [6] = biological target: T3, PSMA Fab; assay: clonal phage ELISA; PSMA Fab wells pre-incubated with PSMA antigen as competitor; anti-M13-HRP detection
Experimental: as §1

Binder	Phage binding ELISA signal, Anti-PSMA Fab (PSMA Fab [1])	Phage binding ELISA signal, Anti-PSMA Fab in presence of PSMA antigen (PSMA Fab [2])	phage binding ELISA signal in presence of PSMA (PSMA Fab [3])	phage binding ELISA signal (PSMA Fab [4])	other results
VEKWCIPEWMCETS (cysteine pairing not given here; also: displayed on phage pIII, linker not given here, Clonal phage of the peptide-180 library; not shown: fused to pIII of the bacteriophage) [Phage-2611]	1.02	0.0624	–	–	–
LTNWCTPSWMCYGL (Clonal phage displaying the peptide, tested as crude supernatant; also called peptide-180 library clone; not shown: fused to the pIII filament protein of the bacteriophage) [Phage-2577]	–	–	0.0817	1.09	–
VDTWCTPPWMCWGL (cysteine pairing not given here; also: fused to phage pIII, linker and fusion site not given here, also called peptide-180 library clone; not shown: fused to the pIII filament protein of the bacteriophage) [Phage-2573]	–	–	0.0695	1.09	–
VGKWCVPMWMCATD (cysteine pairing not given here; also: fused to phage pIII, linker and fusion site not given here, Clonal phage displaying the peptide, tested as crude supernatant; also called peptide-180 library clone; not shown: fused to the pIII filament protein of the bacteriophage) [Phage-2587]	–	–	0.0735	1.06	–
GVKWCTPAWMCEWT (Clonal phage displaying the peptide, tested as crude supernatant; also called peptide-180 library clone; not shown: fused to the pIII filament protein of the bacteriophage) [Phage-2580]	–	–	0.0707	1.08	–
GPKWCTPPWMCWEF (Clonal phage displaying the peptide, tested as crude supernatant; also called peptide-180 library clone; not shown: fused to the pIII filament protein of the bacteriophage) [Phage-2579]	–	–	0.331	1.08	–
EVMWCRPAWMCDGI (Clonal phage displaying the peptide, tested as crude supernatant; also called peptide-180 library clone; not shown: fused to the pIII filament protein of the bacteriophage) [Phage-2583]	–	–	0.0623	1.07	–
VDKWCIPAWMCDRS (cysteine pairing not given here; also: displayed on phage as pIII fusion, linker and pIII sequence not given here, Clonal phage of the peptide-180 library; not shown: fused to pIII of the bacteriophage) [Phage-2606]	1.03	0.0604	–	–	–
VVKWCKPAWMCEQA (Clonal phage displaying the peptide, tested as crude supernatant; also called peptide-180 library clone; not shown: fused to the pIII filament protein of the bacteriophage) [Phage-2584]	–	–	0.0788	1.07	–
HVNWCTPKWMCSGF (cysteine pairing not given here; also: displayed on phage pIII, linker not given here, Clonal phage of the peptide-180 library; not shown: fused to pIII of the bacteriophage) [Phage-2614]	1.02	0.0894	–	–	–
SEKWCIPEWMCMYA (Clonal phage displaying the peptide, tested as crude supernatant; also called peptide-180 library clone; not shown: fused to the pIII filament protein of the bacteriophage) [Phage-2581]	–	–	0.0532	1.08	–
QMKLCIPQWMCVDH (cysteine pairing not given here; also: displayed on phage as pIII fusion, linker and pIII sequence not given here, Clonal phage of the peptide-180 library; not shown: fused to pIII of the bacteriophage) [Phage-2607]	1.03	0.0553	–	–	–
EFKWCTPEWMCAMA (cysteine pairing not given here; also: fused to phage pIII, linker and fusion site not given here, Clonal phage displaying the peptide, tested as crude supernatant; also called peptide-180 library clone; not shown: fused to the pIII filament protein of the bacteriophage) [Phage-2575]	–	–	0.0845	1.09	–
ETQMCVPQWMCWGI (Clonal phage displaying the peptide, tested as crude supernatant; also called peptide-180 library clone; not shown: fused to the pIII filament protein of the bacteriophage) [Phage-2586]	–	–	0.0571	1.07	–
YTPWCKPAWMCSVS (cysteine pairing not given here; also: displayed on phage pIII, linker not given here, Clonal phage of the peptide-180 library; not shown: fused to pIII of the bacteriophage) [Phage-2617]	1.01	0.0806	–	–	–
FANWCTPSWMCVGM (cysteine pairing not given here; also: displayed on phage pIII, linker not given here, Clonal phage of the peptide-180 library; not shown: fused to pIII of the bacteriophage) [Phage-2612]	1.02	0.0676	–	–	–
TFKWCTPAWMCAGF (cysteine pairing not given here; also: fused to phage pIII, linker and fusion site not given here, Clonal phage displaying the peptide, tested as crude supernatant; also called peptide-180 library clone; not shown: fused to the pIII filament protein of the bacteriophage) [Phage-2574]	–	–	0.0801	1.09	–

Binder	Phage binding ELISA signal, Anti-PSMA Fab (PSMA Fab [1])	Phage binding ELISA signal, Anti-PSMA Fab in presence of PSMA antigen (PSMA Fab [2])	phage binding ELISA signal in presence of PSMA (PSMA Fab [3])	phage binding ELISA signal (PSMA Fab [4])	other results
VPKWCTPDWMCYGM [Phage-2621]	–	–	–	–	Phage binding ELISA signal, Anti-PSMA Fab (PSMA Fab [5]): 0.996; Phage binding ELISA signal, Anti-PSMA Fab with PSMA antigen (PSMA Fab [6]): 0.0681
EGKWCIPEWMCISV (Clonal phage displaying the peptide, tested as crude supernatant; also called peptide-180 library clone; not shown: fused to the pIII filament protein of the bacteriophage) [Phage-2582]	–	–	0.0637	1.08	–
LHKLCIPEWMCEYY (cysteine pairing not given here; also: displayed on phage as pIII fusion, linker and pIII sequence not given here, Clonal phage of the peptide-180 library; not shown: fused to pIII of the bacteriophage) [Phage-2608]	1.03	0.0595	–	–	–
IANWCTPQWMCDGF [Phage-2620]	–	–	–	–	Phage binding ELISA signal, Anti-PSMA Fab (PSMA Fab [5]): 0.997; Phage binding ELISA signal, Anti-PSMA Fab with PSMA antigen (PSMA Fab [6]): 0.0631
LQEWCIPPWMCIKS (Clonal phage displaying the peptide, tested as crude supernatant; also called peptide-180 library clone; not shown: fused to the pIII filament protein of the bacteriophage) [Phage-2578]	–	–	0.0797	1.09	–
SSMLCIPPWMCEQS (cysteine pairing not given here; also: displayed on phage as pIII fusion, linker and pIII sequence not given here, Clonal phage of the peptide-180 library; not shown: fused to pIII of the bacteriophage) [Phage-2610]	1.02	0.0682	–	–	–
HEKWCIPPWMCEAN (cysteine pairing not given here; also: fused to phage pIII (clonal phage display), Clonal phage of the peptide-180 library; not shown: fused to pIII of the bacteriophage) [Phage-2615]	1.01	0.0603	–	–	–
QEKMCIPAWMCSEY (Clonal phage displaying the peptide, tested as crude supernatant; also called peptide-180 library clone; not shown: fused to the pIII filament protein of the bacteriophage) [Phage-2576]	–	–	0.0615	1.09	–
MNKWCTPAWMCEVV (cysteine pairing not given here; also: displayed on phage as pIII fusion) [Phage-2619]	–	–	–	–	Phage binding ELISA signal, Anti-PSMA Fab (PSMA Fab [5]): 0.998; Phage binding ELISA signal, Anti-PSMA Fab with PSMA antigen (PSMA Fab [6]): 0.095
AFKWCIPNWMCASQ (cysteine pairing not given here; also: fused to phage pIII (clonal phage display), Clonal phage of the peptide-180 library; not shown: fused to pIII of the bacteriophage) [Phage-2618]	1.01	0.0999	–	–	–
MYNLCTPEWMCAGF (cysteine pairing not given here; also: displayed on phage pIII, linker not given here, Clonal phage of the peptide-180 library; not shown: fused to pIII of the bacteriophage) [Phage-2613]	1.02	0.0554	–	–	–
DLKRCIPDWMCAVA (cysteine pairing not given here; also: fused to phage pIII, linker and fusion site not given here, Clonal phage displaying the peptide, tested as crude supernatant; also called peptide-180 library clone; not shown: fused to the pIII filament protein of the bacteriophage) [Phage-2585]	–	–	0.0617	1.07	–
VWQLCIPPWMCQFE (cysteine pairing not given here; also: displayed on phage as pIII fusion, linker and pIII sequence not given here, Clonal phage of the peptide-180 library; not shown: fused to pIII of the bacteriophage) [Phage-2604]	1.03	0.113	–	–	–
QDNWCIPRWMCEAM (cysteine pairing not given here; also: displayed on phage pIII, linker not given here, Clonal phage of the peptide-180 library; not shown: fused to pIII of the bacteriophage) [Phage-2616]	1.01	0.0626	–	–	–
MVKWCTPAWMCTLE (cysteine pairing not given here; also: displayed on phage as pIII fusion, linker and pIII sequence not given here, Clonal phage of the peptide-180 library; not shown: fused to pIII of the bacteriophage) [Phage-2609]	1.02	0.0801	–	–	–
VMKWCTPSWMCEHI (cysteine pairing not given here; also: displayed on phage as pIII fusion, linker and pIII sequence not given here, Clonal phage of the peptide-180 library; not shown: fused to pIII of the bacteriophage) [Phage-2605]	1.03	0.0582	–	–	–
